From the domain aggregation screens of Martell et al. (2025)

Assay: soluble fraction after stress (log2 fold change); higher = more stays soluble; pooled small domains, quantitative proteomics
Conditions: stress: 50 degC
In short: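 Each library was heated to 50°C as a stress step. The libraries, made up of small protein domains, were pooled and analysed at high throughput by quantitative proteomics. The reported value is the base-two logarithm of the fold change in each protein's soluble amount after stress, taken as a measure of aggregation propensity. The higher the value, the more protein stays in solution.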

| Sequence | soluble fraction (log2) |
| --- | --- |
| HMGTTAWISTKTANGSVNIRTGPGTGYGVIGWALNGDKLEVLSRGTSWHYVKLVKNGKIGYVSASYVSFTQ | -0.193 |
| HMDEAETELIRRMVSEHPPTTKRERDIVQMRLRGYLFVEIGEAYGISFQRAAQIYNAAVEKIKEYWD | 0.00188 |
| HMEDPAVYYKILQIPPDASLSEIHRAFEKITSAWDPERYPHISSWKETSAKKLQEIRNAYEKLLILRETG | -0.0409 |
| HMSDQIQQIAERIAGLRDIAGYSVEELARELGISAEEYKRYESGEVDIPIGFLYKLANKYNVELTAILT | -0.0876 |
| HMSMPTITLQHYKRGSHYYASIIETFRDPVTRKNSSRTLEALGDISEKMKEDPNYLQSLKDRVKALRSD | -0.656 |
| HMNEFAYLIKISPEHNNNRYYRMVAEGDNFRIEMGRIGASPVQMKRPMYLWNETYQKKLQEGYTDRTSYTS | -1.92 |
| HMSPTDKATVNVYALNVRTGPGTNYKVLGSVIKGTELQVLGSSGKWLKVKYGNREAYVAGWLVK | -1.62 |
| HMAVPTHVEFPVVGLQRSGITSLEQAIATVPGVSKAVVNVSDNRIFVDYDPTRSKVSDLLEVVRGAGFTP | -0.000584 |
| HMQTNEAIINQAVQAAEAQNITTRSQAVDALKANGMTEAQARQLAVQRGISYDQLINELFPME | -0.0275 |
| HMLPYGDRRRHTDNTISRIRELAAALDDSGIADRLNQDGYVTPEGKPFTYAGVRWIRYKYDISGPYERN | -1.5 |
| HMSFGKKLRSLRQEKKLSQVELSKKLNVTSQALSQYELGKRIPDAEMIIRIADFFDVSVDYLLDRT | 0.215 |
| HMGKELSTVVVPDLTGLSVLEARNVLTKVGLQLTPSGAGIAFKQIPTPGTRLTLGATVTVYFVATGY | 0.0979 |
| HMLTEERLQIITDTVNSRSSVTIAELSRILDVSPSTVKRDLNILAEAGKITKVRGGAIALGE | -0.0232 |
| HMRKTLSQEAYEKIKQNLEDGVYQGYINGRQVARDLDIGFTPVREAFLQLQSEGLIRKEDNVGYFV | 0.139 |
| HMLVVEPSAELKTIIDKTASFVARNGPEFEARIKNEQNNAKFSFLQPNDPFNPYYRAKIVELGGTV | 0.0591 |
| HMINKQPKDYEYFLEKWHFTQTEKHQLHNLILKLNIRYPNKDFLKITENLDNGKLVLKKLEERLSKT | -1.05 |
| HMNREMLVHAIGQLKEKYASALELKYWHGFTEREIAAFLNISEKAANSRLVRGRVMLRKLLE | 0.131 |
| HMKQISNTDELEAMIQKIIEDNSQQVEKFRSGNEKLFGWFVGQVMKNTQGAANPKVVNEILKKSLK | 0.177 |
| HMEFNQAVQDVNELSMQYAKSDVLWPEFEPKVLAFAKNELSQMPPNQWKFALQTFYNGLKQAA | -0.352 |
| HMNLEIGAIIKSLRAKHKYTQEQLSAFLGVTPQAVSRWEAGNGYPDIELLPAIARFFEVSTDELLGL | -0.428 |
| HMDTERLYAYAWQTHLKQFGLNISEEEIRQFVGVDDRIVHSFYAKTVPLDDFENTMFSLGEIIQQSL | -2.99 |
| HMPYIVNHIHLKSEDPKITADWFVKAFNFEIVSDVVRHFGDRFIVTKAEGGMTINISGVRDGEEL | -0.0655 |
| HMKHEFSEEWLDWIKSNIADGQNKNGLFKVLLNHGYAYDAVREVMQYEPTVPLDELVDPLRA | -0.139 |
| HMQVSEQVQRLLDALENDTLTTKELMDRLGLKHRPTFRKNYLLPSMKLGLVEMTIPDKPNSSRQKYRRRQ | -0.65 |
| HMVERLVVSPGAGVFAPNKAIANGTRISVGDVLGMVGEQEVRSLFDGVLQSFISVDGERLTAHQPVAWLRT | -0.536 |
| HMGGEPKALLFAGVETREMAEITQRLEAADIPYEIREDGGSIYVARSEVFNARMMLSADGLPS | -0.109 |

| Sequence | soluble fraction (log2) |
| --- | --- |
| HMSEQLHALIDRLDDIPDDELKKNWPGTLRDLVDVISAELHRQGIEPAQAGMLARKVAAAQAGYMG | -0.344 |
| HMNAEGLIGREAVALTAVDAHGGRVRLGGEEWSARLSKENGGVSRLSVGDPVRVTDIDGAIAVVAP | 0.187 |
| HMELRIREILESKDIKVSSLAETVGITRANMSNIVNGKSTPSLETLEKIANALGVDITELFA | 0.116 |
| HMHWDIAQADAKQEVMDSSDDKEAIERIQANMFKDPKDHDQEYANKILNDMIDEIKEKGLEAMQHKFAQE | -0.379 |
| HMFERIYVFSRDGDIIELPKGSTVLDFAYHVHTHVGNRAQAARVNKRYVPLTYQLKTGEQVEIIIS | -1.2 |
| HMLRMTRNRQKLVEVLMESGRPLSADEIREAAGFASTDLVTVYRNLEAFQSAGLLQRIPLENGSQLFELT | -0.478 |
| HMGESEWIVKWRGEKRDEERLQESELVRDDPEHRISVVRPRDDVDASAWLNRWRKSRYVQYIQPNHRVTIS | 0.0613 |
| HMRDPLNTGFRQTLKDIVNSLPKNELYSPGVREEYIYPKIGVTSLGMEASMVLNGLISSRRKNIELKEKN | 0.447 |
| HMENITTILRSIKNEIKKNSTFVGDDFVNQARSMNQGQIKEKSIYGHGTKKEIEELRDEGVDVLNIPWIT | -0.162 |
| HMDYLYHNGKEIDQGSIMYKMEDYSDGIFELQSAKYADGTELDEKELEELESTQELIDWVMIDFVS | 0.42 |
| HMEFPLSPHQYSVLRLMAQGLSNKQIAERLFLSENTVKGYVQEVLRRLGARNRLEAVMIANRRGWL | -0.112 |
| HMKYNGDRPVFNDDVAWAKWMLENPAKITSHDKENLSSMLKKPEVVMLFEAEDLSVPDLRTLAKE | 0.236 |
| HMKRAVGLDEYRDSIVLKKPEGYTEESYAAYKNAYDALMALDSKETTAEMFANAKSAFEAAQAGLVQKP | 0.101 |
| HMSKETTYEVLSLKGDEWQTDTIYSDRDEAIEAARNLHGDPHIDGAKVISEVYDDKTGGSKETTIFNT | 0.226 |
| HMQDLEIKINLGMTYYEVREAIGSPDIIDKINQYGRDFQMWTYYIDDKTKRYYFEDHLLTKI | -3.33 |
| HMQNPYDTLGVSRDSTDAEIKKAYRKLAMEHHPDKGGDSQRFAEINNAYDNIKDMSSRQNFENDPSNFQ | 0.288 |
| HMSLIHEQSLKEIRIFINNLPESLRTAFTLREQDGLSYEEISKITDTPIGTVRSRIFRARESILEHINEEL | -1.89 |
| HMEETLLLRESVRSALAMLAPTLRITLEMYVYRQLSPTEIALRSGVSISMVRRRLGYGLYKLRTQLIDA | -0.138 |
| HMFDFMVLGQAIKKARESKEMTREQLAEILDVAPRHIQSIENEGQYPSFPLFIRLVTMFNISVDQY | -1.92 |
| HMRQIRELFRLKFGSLLPTSDRQIAAQLGVARSTVAEYLERARAAGLSWPLPLDLSDADLEERLFA | -2.75 |
| HMVDDELTARRRVNLRRIADELGGAAAVARKTQKSVQQISSMLNGTKSFGSKIARDIEPKLGLPLQSLDKE | 0.128 |
| HMNAMKPVLTVSLGVHTDSLSRRLNEEGIIYRWQQAASEQLLLVDSESSSERIAELIHDWRLEQSSS | -0.0169 |
| HMDIFFEKIFNILIGYNQNQENLISEKSILNFHLSHKSNSNFEYIPDEKTPKYIWKYLSNYNLLE | -0.359 |
| HMALPRYFFRTRENGAVLFKTPVNNHQNRLEMHQIAAINIRNETVKPLGDTVLTDEETELIADWMRERKTV | -0.72 |
| HMETKVIVPKVTGMNSKSAINYLSARGLKYKAVPADSGKSFHVVDQYPKSGTKVSPHSTVYLYS | 0.077 |
| HMTVKVPDLRGKTLAEMQRILDDAGLKYEINDSTFSRTAIPGTVREVIPAPGSEVKLGRILFIAINGF | -0.914 |

| Sequence | soluble fraction (log2) |
| --- | --- |
| HMGERMELTLDNPREAIPVLDAMGFANYQVVDKEHIHIFERLNESALVNMELAKAGIPVKGISITSE | 0.018 |
| HMRPEARAASLSDEERKIFDYLAANGEKTIDNISVAVKMSAADILKNITLMSAKGLVYMPSAGRYGVKGN | -0.00201 |
| HMRAFTPSEAQVAHARRVMEAFWQHQREGHGAFALDGKMVDAPIVKAAARVLARAGLQDPNHPIHLA | -0.0227 |
| HMSAETREELVGREGVSLTDLRPSGFALFGQEKIDVVSESEFIEEGTSVRIVSVEGSRHIVRAKR | 0.0998 |
| HMSSYETVTLNGQRYFKYKVKSGEGLYAISRMFSTPIAEIIRHNPSSNAGLKNGQELLIPVN | 0.00287 |
| HMSSFRDISGTVYVKASAANLRSEPNTSSLIVDTLYYGASLQRISTNDIWTKVKTGNGQIGFMDNSLFQT | -2.23 |
| HMLSDSDTLRDLYLSEQIWNVGDLIRVKGKNDDTHPSWEIIRRGTNYITAIDENYKSHKVWLHDIDI | -1.17 |
| HMKGQLVVFPNPASSNDMVRFNKNISFSIFDITGHLVDTKRNVNELSVGNLEAGTYILRTEQGDVLRMVI | -1.24 |
| HMNNENELSSIISKVLEENPAEKERFLNGEKKLAGFFMGKIMKATKGTADPKKAAQLLNEIL | 0.295 |
| HMSQEAKLAMPVTDLRLSARTLNALELANIRTVRDLVSHTEEQLLELRNFGETALAEVKEKLAALGLRLGM | 0.18 |
| HMRYLMPDLVNRRYEPVRSLLEARGIRFGNVIFEPYEGLPPGIVLRQDPPAGHPLPRRRTVSLVVSGPGGR | -1.88 |
| HMIAVIKPSATAEQKAGLVDWIRGQGIDVHISEGHDYTVLGLIGDTSKIDMDLIASLDIVDSVKRVA | -0.0298 |
| HMFMKNTEVALAIKGKFSNQTTITSKELVLFLSDLFPELSNKTIPWKINQLKAENLIYQTGRGIYTFN | -2.57 |
| HMTKIKAIFFDIDGTIRSFKTKTIPENTANTLKKLKEQGIKIFIATGRAPFHTTFLNDLLDFKFDGYITIN | -0.282 |
| HMDADGEPIKLDQIGISHLSFTVADVKSLGEELVAKGVKLAAPMEAFTSPEGRISSIFVYDPDGILLQFDD | -0.104 |
| HMPKAKASARNDTRTRLLTIGTEVLSQKGFASTGVEEILSVAGVPKGAFYYYFESKAAFGLAVIENYE | 0.0027 |
| HMLGYGEQEREAQKYLEMHTAFQADPSLQKMYLPENQYALISKVMEMTGIKNVKSYLTPPNEL | -0.0174 |
| HMNKLKALREEQGLSMMEIAKQLNMPYTTYVNYEKGTREPNSEMLIKFSKFFNVTIDYLIGNSEQKN | -0.502 |
| HMYSNDEIVNYLKNYIFDNFNLNELSDEELEEKIAELVQQQFAGQLLSLDEKVKLVNQVYSSIR | 0.0129 |
| HMFTRFTVAQDGWTIGGFTAKEMAVSTAKQHAVDTGKPVTVVAHVAGGGSREAIFNSDGTNDKIWN | 0.0601 |
| HMNKRKQRINDLMDLIREQPALSIKNLAEMLNVSEMTIRRDMAYLKSNNLLNRAHGMNFLNS | 0.0812 |
| HMKYSNDEVERDLYVRGVIYQIGDLVENKLDGTSGEVVRRGPNYVQYTDGENFYKAFLSALQEQK | -0.354 |
| HMSFFNGNQMKILRKKLQLNQEEMGEKLGIKKSYVSQLENNRKEITEEIDQILQELEQEYQDKM | -0.323 |
| HMKYRLLGENLQTIRKARGMKQQELADQIGINMQSLSKIERGLNYPTFETLEKIMNALGITPNELLSG | -0.461 |
